Data published in US11434299 (TENEOBIO, dated 2022).

Molecular target: T1, human BCMA (B-Cell Maturation Antigen) on NCI-H929 cells (human, UniProt Q02223 1-184)
T1 construct: whole, on cells; Endogenous BCMA on NCI-H929 myeloma cells; also called TNFRSF17; H929 cells (BCMA+, lambda-)
T1 sequence (looked up): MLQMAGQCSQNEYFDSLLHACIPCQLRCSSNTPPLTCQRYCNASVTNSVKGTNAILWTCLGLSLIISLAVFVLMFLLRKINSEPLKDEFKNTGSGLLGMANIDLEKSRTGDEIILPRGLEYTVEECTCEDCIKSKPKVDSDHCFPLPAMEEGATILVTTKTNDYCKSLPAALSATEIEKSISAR
Assay: flow cytometry, HEK supernatants on NCI-H929 cells (BCMA+)
Protocol: Supernatants of all antibodies were also tested by flow cytometry for binding to RPMI-8226 cells (BCMA+, lambda+) and H929 cells (BCMA+, lambda−). The samples were measured by flow cytometry using a Guava easyCyte 8HT instrument from EMD Millipore and analyzed using guavaSoft. Bound antibodies were detected with goat anti-human IgG F(ab')_2 conjugated to PE (Southern Biotech 2042-09). All antibodies were diluted in PBS with 1% BSA. Positive staining was determined by comparison to staining with a human IgG1 isotype control. The NCI-H929 and RPMI-8226 cell lines are human multiple myeloma lines expressing human BCMA, which were obtained from the American Type Culture Collection (ATCC) and cultured according to ATCC recommendations.

binding result: binds
B1: SEQ ID NO 53 (antibody, V domains shown)
VH: EVQLLESGGGLVQPGGSLRLSCAASGFTFSNYAMNWVRQAPGKGLEWVSGIIGSGGSTYYADSVKGRFTISRDNSKNTLYLQMNSLRVEDTAVYYCVKDWNTTMITERGQGTLVTVSS
notes: UniAb: CH1 deleted, no light chain; HEK supernatant
